Data as given in patent CN105646705A.

Molecular target: 原核表达的重组人GFAP蛋白 (PET28a-GFAP, 大肠杆菌BL21表达, Ni-NTA纯化) (human) (UniProt P14136)
Assay: direct ELISA, purified GFAP coated at 10 μg/ml, purified antibody diluted 1:200 to 1:12800, goat anti-mouse IgG-HRP, OD450

Chain of UniProt P14136 (P14136 other isoform, or with tags, fused parts or gaps): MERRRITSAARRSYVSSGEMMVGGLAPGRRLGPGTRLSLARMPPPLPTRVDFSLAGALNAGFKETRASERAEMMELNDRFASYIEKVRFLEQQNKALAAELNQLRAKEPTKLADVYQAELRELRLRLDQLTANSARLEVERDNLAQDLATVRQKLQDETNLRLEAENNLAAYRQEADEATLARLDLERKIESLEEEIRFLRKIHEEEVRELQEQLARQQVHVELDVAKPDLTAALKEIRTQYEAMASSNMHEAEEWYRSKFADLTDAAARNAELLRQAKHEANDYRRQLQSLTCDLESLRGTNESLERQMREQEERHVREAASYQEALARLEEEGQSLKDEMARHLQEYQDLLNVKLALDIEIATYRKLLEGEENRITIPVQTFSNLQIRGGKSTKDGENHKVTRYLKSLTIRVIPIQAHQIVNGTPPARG

- ELISA滴度 (dilution factor (1:x)): > 10000
B1: 小鼠抗人GFAP单克隆抗体 5C8 (杂交瘤细胞株5C8, CGMCC No.6915) (antibody, part only; not given: light chain variable region, V domains shown, part only)
VH: LASTATGVHSQVQLQQPGAELVRPGASVKLSCKASGYTFTSYWMNWVKQRPGQGLEWIGMINPSDSEIQYNQMFKDKATLTVDKSSSTAYIHLTSLTSEDSAVYYCARGLGRYWGQGTTLTVSPASTTPPSV
